The results in this text go back to patent US6517838B1, “Decorin binding protein essential peptides and methods of use” (The Texas A&M University System, priority 2000, dated 2003).

The test system of test [1] is B. burgdorferi strain B31. Kind of test: Joint cultures for spirochetes after infection of immunized mice. The class given is in vivo. Particulars: immunized C3H/HeJ mice, joints 14 days post infection. As for the experimental part: (§1) Mice were immunized with recombinant DbpA (SEQ ID 1), P2 (SEQ ID 3), P4 (SEQ ID 5), P5 (SEQ ID 6), P4/P5 (SEQ ID 5/SEQ ID 6), P9 (SEQ ID 10), or the corresponding lysine modified counterparts (P2 Mod, P4 Mod, P5 Mod or P9 Mod) using the immunization schedule established by Hanson (11). Briefly, mice were immunized with 20 μg of protein or peptide in complete Freund's adjuvant (CFA) (Week 1), boosted at week 4 with the same dose in incomplete Freund's adjuvant (IFA) and infected at week 6.
(§2) Low-passage B. burgdorferi strain B31 (passage 5) was used in this study and cultured in BSK II (Barbour-Stoenner-Kelly) medium at 34° C. (22). Bacterial cultures were incubated in CO2-enriched atmosphere in a GasPak chamber (BBL, Baltimore, Md.) containing BBL GasPak Plus envelopes and a GasPak anaerobic indicator (Beckton dickinson, Cockeysville, Md.) until the cells reached log phase. Bacterial counts were determined using dark field microscopy and a Petroff-Hausser chamber.
(§3) Mice (15 mice/group) were anesthetized with Metofane (methoxyflurane; Pitman-Moore, Mundelein, Ill.) and 10 mice/ group were infected i.d. at the base of the tail with 10^4 Borrelia in 100 μl of media 6 six weeks after the first immunization. The remaining 5 mice/group were tested for a DTH response to recombinant DbpA. Following infection, mice were bled 7 and 14 days postinfection. […]

The subject of test [2] is B. burgdorferi strain B31. As to the kind of experiment: Arthritis assessment, histopathology of hind tibiotarsal joints of immunized infected mice. The class given is in vivo. As for the experimental part:
as §1
Mice (15 mice/group) were anesthetized with Metofane (methoxyflurane; Pitman-Moore, Mundelein, Ill.) and 10 mice/ group were infected i.d. at the base of the tail with 10^4 Borrelia in 100 μl of media 6 six weeks after the first immunization. The remaining 5 mice/group were tested for a DTH response to recombinant DbpA. Following infection, mice were bled 7 and 14 days postinfection. Serum was collected for antibody analysis and blood cultured for the detection of live spirochetes by inoculating 5 ml of BSK II medium with 50 μl of blood from each infected mouse and cultured for 2 weeks at 34° C. as described above. Also on day 14 postinfection, mice were sacrificed and one hind tibiotarsal joint, heart, bladder, and a 3 mm skin biopsy from the ear were aseptically removed and inoculated into separate tubes containing 6 ml of BSK II medium with antibiotics (50 μg/ml rifampacin and 100 μg/ml phosphomycin (Sigma), and incubated for 2 weeks at 34° C. as described above. Evidence of arthritis was determined by histopathological examination of formalin-fixed hind tibiotarsal joint samples.
Evidence of arthritis was determined by histopathological examination of formalin-fixed hind tibiotarsal joint samples. Tissues for histological examination were embedded in paraffin and stained with hematoxylin and eosin. All sections were examined without knowledge of the vaccination status of the mouse. Arthritis was scored by one of two methods. A positive/negative assessment was used, as well as assignment of an arthritis severity score. Joints were scored according to the levels of infiltrate (neutrophils) as follows: 0, no arthritis, 1, minimal or rare (≦10% tissue involvement); 2, mild (10-20%); […]; and 4, severe (>50%).
A similar trend was also observed for joints examined for arthritis (Table I). DbpA-(SEQ ID 1), P4-(SEQ ID 5), and P5-(SEQ ID 6) immunized mice had the lowest arthritis ratings (0.2, 1.2, and 0.4, respectively) and lowest arthritis incidence (20, 60, and 20%, respectively).

The test system of test [3] is polyclonal, rabbit anti-DbpA (625). As to the kind of experiment: ELISA recognition of DbpA-peptides by polyclonal anti-DbpA serum. Format: binding. As to conditions: 2 μg peptide/well, 1:1000 anti-DbpA serum, FIG. 2. As for the experimental part:
Immulon-1 microtiter plate wells (Dynatech Labs, Chantilly, Va.) were coated with 2.0 μg of each peptide in 50 μl of PBS overnight at 4° C. The wells were washed and then blocked with 400 μl of Super Block (Pierce, Rockford, Ill.). All incubations were done at 37° C. and all dilutions were made using Super Block. After washing, 100 μl of a 1:1000 dilution of polyclonal, rabbit anti-DbpA (625) (17) was added for 1 hr. After washing, 100 μl of a 1:1000 dilution of AP-conjugated anti-rabbit IgG (Bio-Rad, Hercules, Calif.) was added for 1 hr. The wells were washed and incubated with 100 μl of a 1 mg/ml of Sigma 104 phosphatase substrate (Sigma Chemical Co., St. Louis, Mo.) dissolved in 1 M diethanolamine, 0.5 mM MgCl2, pH 9.8. Plates were washed with 0.05% PBS-Tween 20 between all steps. The absorbance at 410 nm was determined in a Microplate Reader (Molecular Devices, Menlo Park, Calif.).
Immunizations utilizing peptide formulations require that immune responses to the peptide(s) result in recognition of native-protein epitopes. […] Cross-reactivity of peptide epitopes with native protein was examined by ELISA.
(In general: An ELISA detects its analyte on a solid surface through an enzyme-linked reagent.)

In test [4] the test system is B. burgdorferi strain B31. Kind of test: Blood cultures for spirochetes after infection of immunized mice. Format: in vivo. Particulars: immunized C3H/HeJ mice, blood 7 days post infection with 10^4 Borrelia i.d. On the procedure: as §1, §2, §3
Test [5] deals with T1, decorin (Bos taurus, UniProt P21793).
T1 construct: Decorin from bovine fetal skin was purified and stored in 4 M guanidine hydrochloride; from tissue; host or cells: decorin from bovine fetal skin; DbpA made in E. coli JM101
Kind of test: Western ligand blot with digoxigenin-labeled decorin. As to conditions: SDS-PAGE reducing, probed with digoxigenin-labeled decorin. The class given is binding, bovine. As for the experimental part:
(§4) Decorin from bovine fetal skin was purified and stored in 4 M guanidine hydrochloride at −80° C. and dialyzed extensively against PBS before use. Decorin was labeled with digoxigenin-3-O-methylcarbonyl-ε-aminocaproic acid-N-hydroxy-succinimide ester (digoxigenin) (Boehringer Mannheim, Indianapolis. Ind.) according to the manufacturer's instructions and stored at −20° C. To label decorin with biotin, 7.5 mg of NHS-LC-Biotin (sulfosuccinimidyl-6-(biotinamido) hexanoate) (Pierce, Rockford, Ill.) was dissolved in 100 μl of dimethyl sulfoxide and combined with 0.5 mg of decorin and 0.5 ml of 0.2 M sodium borate (pH 8.0) in a total reaction volume of 1 ml.
Proteins (purified DbpA, DbpA site-directed mutants and OspC) were subjected to SDS-PAGE (reducing conditions) and probed with rabbit anti-DbpA polyclonal sera (R625) or with digoxigenin-labeled decorin.
Further, the side chains of lysine residues were chemically modified and the binding properties of the resulting protein examined. […] Both forms of DbpA migrated as two bands, monomers at 20 and 21 kDa and dimers at 40 and 42 kDa for DbpA and chemically modified DbpA (K-mod), respectively. The decorin binding activity of the DbpA and lysine-modified DbpA was examined in a Western ligand blot assay (FIG. 6B).

A further test relates to recombinant DbpA. Kind of test: Delayed-type hypersensitivity (DTH) to DbpA, footpad swelling in immunized mice. The class given is in vivo, B. burgdorferi. On the procedure:
as §1
Native C3H/HeJ mice immunized with DbpA (SEQ ID 1), P2 (SEQ ID 3), P4 (SEQ ID 5), P5 (SEQ ID 6), P4/P5 (SEQ ID 5/SEQ ID 6), P9 (SEQ ID 10), or the corresponding lysine modified counterparts (P2 Mod, P4 Mod, P5 Mod or P9 Mod) were challenged with 2 μg of recombinant DbpA in PBS (50 μl/footpad) 7 weeks after the initial immunization. All footpads were measured before and 24 h after challenge using a spring-loaded micrometer (Mitutoyo, Tokyo, Japan) as described (23). The mice were anesthetized as described above during footpad measurements and injections. Swelling was determined by subtracting the footpad measurements before challenge from those taken 24 h after challenge.
DTH is an in vivo method of testing T cell-dependent immune responses that are manifested by inflammation at the site of antigenic challenge. Mice immunized with DbpA (SEQ ID 1), P2 (SEQ ID 3), P4 (SEQ ID 5), P5 (SEQ ID 6), P4/P5 (SEQ ID 5/SEQ ID 6) combined, P9 (SEQ ID 10), or the corresponding lysine-modified peptides were challenged in the footpad with 2 μg of recombinant DbpA (SEQ ID 1). Footpad measurements were taken before and after challenge as described above. DbpA (SEQ ID 1)-immunized mice developed a significant footpad swelling of 53.3±3.5 (not shown) compared to mice immunized with adjuvant alone or naive mice receiving only the DbpA (SEQ ID 1) challenge. Peptide-immunized mice, with the exception of P2 (SEQ ID 3), also developed a significant DTH response to DbpA (SEQ ID 1) compared to the lysine-modified controls.

For test [6], the target named is T1, decorin. Kind of test: Binding of biotin-conjugated decorin to protein-coated microtiter wells. More on the design: species or system bovine. As to conditions: 0.4 μg protein coated, 0.12 μg/ml biotin-decorin, compared to wild-type DbpA. As for the experimental part: as §4
Immulon-1 microtiter plate wells (Dynatech Labs, Chantilly, Va.) were coated with 0.4 μg of DbpA (SEQ ID 1), DbpA mutants and K-mod in 50 μl PBS overnight at 4° C. The wells were washed and then blocked with 200 μl of Super Block (Pierce) for 1 h. After washing, 0.12 μg/ml of biotin-conjugated decorin in 100 μl of Super Block was added to the wells and incubated for 1 h. After washing, 100 μl of a 1:10,000 dilution of alkaline phosphatase (AP)-conjugated streptavidin (1 U/ml) (Boehringer Mannheim) was added and incubated for 1 h. […] The absorbance was determined in a Microplate Reader (Molecular Devices, Menlo Park, Calif.). […]

T1 sequence (P21793 31-360): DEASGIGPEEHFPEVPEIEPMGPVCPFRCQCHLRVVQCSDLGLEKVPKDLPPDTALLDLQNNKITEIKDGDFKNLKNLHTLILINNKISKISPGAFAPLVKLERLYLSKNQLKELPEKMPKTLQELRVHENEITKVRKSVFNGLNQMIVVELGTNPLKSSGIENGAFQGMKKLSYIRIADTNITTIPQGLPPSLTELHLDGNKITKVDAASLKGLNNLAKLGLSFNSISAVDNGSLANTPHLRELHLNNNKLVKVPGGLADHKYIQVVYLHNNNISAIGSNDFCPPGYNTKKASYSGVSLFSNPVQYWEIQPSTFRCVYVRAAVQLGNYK

B1: DbpA: recombinant decorin binding protein A of B. burgdorferi strain 297, N-terminal His-tag fusion (protein)
chain: MIKCNNKTFNNLLKLTILVNLLISCGLTGATKIKLESSAKAIVDEIDAIKKKAASMGVNFDAFKDKKTGSGVSENPFILEAKVRATTVAEKFVIAIEEEATKLKETGSSGEFSAMYDLMFEVSKPLQELGIQEMTKTVSMAAEENPPTTAQGVLEIAKKMREKLQRVHKKNQDTLKKKNTEDSTAKS
modifications: N-terminal His-tag; Borrelia Burgdorferi
The molecule B1 displayed a positive joint cultures in test [1] of 20%. Besides, the “arthritis incidence and severity (in words)” value in test [2] (immunized infected mice) is recorded as “lowest”. Further, the “% Incidence (arthritis)” value in test [2] (immunized mice, day 14 post infection, tibiotarsal joint histology) is on record as 20%. Besides, the “Mean Arthritis Rating” value in test [2] (severity score 0-4 by neutrophil infiltrate, day 14 post infection) worked out at 0.2. Also, the “recognition by anti-DbpA serum (ELISA, O.D. 410 nm)” value in test [3] is “recognized”. The positive blood cultures in test [4] is on record as 50-60%. In the test with decorin [5], the “decorin binding in Western ligand blot” value is “bound digoxigenin-labeled decorin”. In addition, the “DTH response to DbpA (in words)” value in the test on recombinant DbpA (C3H/HeJ mice immunized with 20 μg, challenged with 2 μg recombinant DbpA in footpad, 24 h) is recorded as “significant inflammation”. Further, in the test on recombinant DbpA (C3H/HeJ mice, 24 h after challenge with 2 μg recombinant DbpA, mean±SE), the footpad swelling was found to be 53.3±3.5.

B2: K-mod: DbpA with lysine residues chemically modified by DL-glyceraldehyde and sodium cyanoborohydride (protein)
chain: ATKIKLESSAKAIVDEIDAIKKKAASMGVNFDAFKDKKTGSGVSENPFILEAKVRATTVAEKFVIAIEEEATKLKETGSSGEFSAMYDLMFEVSKPLQELGIQEMTKTVSMAAEENPPTTAQGVLEIAKKMREKLQRVHKKNQDTLKKKNTEDSTAKS
modifications: left off: small tags and cut ends
notes: DbpA with lysine residues chemically modified by DL-glyceraldehyde and sodium cyanoborohydride
In the case of B2, the “binding of biotin-conjugated decorin to coated microtiter wells” value with decorin [6] was “essentially unable to support the binding of decorin”. The “decorin binding in Western ligand blot” value with decorin [5] is given as “loss of decorin binding”.
